Data reported in patent US20250361274A1, “PEPTIDE AND PEPTIDE-CONTAINING AGENT” (PEPTIDREAM INC., priority 2022, published 2025).
Numbered stars: 1 amine (or outer) side, 2 acyl side, 3 side chain; on linkers, the order of the positions; unused ones are H or OH. Bridge positions count the residues as written; N and C are the ends. Square brackets hold non-standard residues; d marks the D form. Side chains are listed from the residue outwards. Ends that are not written are not given here. Peptide text beside a SMILES is read from it. * marks the point of attachment. KCOpipzaa = N6-(4-(carboxymethyl)piperazine-1-carbonyl)-L-lysine, O=C(NCCCC[C@H](N[*:1])C(=O)[*:2])N1CCN(CC(=O)[*:3])CC1; Bph3C = (S)-2-amino-3-(3'-chloro-[1,1'-biphenyl]-4-yl)propanoic acid, O=C([C@H](Cc1ccc(-c2cccc(Cl)c2)cc1)N[*:1])[*:2]; F44thp = (S)-2-amino-3-[4-(tetrahydro-2H-pyran-4-yl)phenyl]propanoic acid, O=C([C@H](Cc1ccc(C2CCOCC2)cc1)N[*:1])[*:2]; Ala(2-NH2-4-pyridyl) = Nc1cc(C[C@H](N)C(=O)O)ccn1; 3Pal(6-Ph) = N[C@@H](Cc1ccc(-c2ccccc2)nc1)C(=O)O; Phe(4-COOH) = N[C@@H](Cc1ccc(C(=O)O)cc1)C(=O)O; Piperazinyl(4-CH2COOH) = O=C(O)CN1CCN(*)CC1; Bip = N[C@@H](Cc1ccc(-c2ccccc2)cc1)C(=O)O; hTyr = N[C@@H](CCc1ccc(O)cc1)C(=O)O; Hyp = O=C(O)[C@@H]1C[C@@H](O)CN1; NMeF = CN[C@@H](Cc1ccccc1)C(=O)O; hCit = NC(=O)NCCCC[C@H](N)C(=O)O; 4Pal = N[C@@H](Cc1ccncc1)C(=O)O; Cha = N[C@@H](CC1CCCCC1)C(=O)O; Cba = N[C@@H](CC1CCC1)C(=O)O; Abu = CC[C@H](N)C(=O)O; CO = O=C([*:1])[*:2]; βAla = NCCC(=O)O

What was measured:
BMP4 = molecular target: T1, BMP4 (Homo sapiens, UniProt P12644); assay: BMP4 signal transduction inhibitory activity: SMAD1 phosphorylation by BMP4 stimulus, AlphaLISA SureFire, A549 cells; assay type: cell-based; details: for aLISA BMP4: A549 cells
T1 sequence (P12644 293-408): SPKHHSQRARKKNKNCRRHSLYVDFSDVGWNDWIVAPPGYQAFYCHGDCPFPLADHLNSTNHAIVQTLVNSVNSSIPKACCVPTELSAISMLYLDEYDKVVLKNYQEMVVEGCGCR

BMP7 = molecular target: T2, BMP7 (Homo sapiens, UniProt P18075); assay: BMP7 signal transduction inhibitory activity: SMAD1 phosphorylation by BMP7 stimulus, A549 cells; assay type: cell-based; details: for aLISA BMP7: A549 cells
T2 sequence (P18075 293-431): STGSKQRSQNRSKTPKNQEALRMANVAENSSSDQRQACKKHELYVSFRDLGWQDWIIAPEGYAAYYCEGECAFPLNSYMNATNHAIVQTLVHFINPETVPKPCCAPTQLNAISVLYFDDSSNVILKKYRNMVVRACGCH
Summary of the method: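 Inhibition is read as reduced BMP7-driven SMAD1 phosphorylation in human A549 cells, with the BMP7 stimulus at 10 nM. Three-point peptide concentrations spanned 1–1,000 nM depending on the peptide series. Some peptides received eight-point, 1/3-ratio titrations from 100 nM or 1,000 nM, alongside a Noggin control.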

[1] = SMAD1 phosphorylation, BMP4 0.2 nM, peptide conc. in assay 0.2, 2, 20 nM
[2] = SMAD1 phosphorylation, BMP7 10 nM, peptide conc. in assay 1, 10, 100 nM
[3] = SMAD1 phosphorylation, peptides of Synthesis 2, peptide 0.02, 0.2, 2 nM
[4] = 10 nM BMP7, peptides of Synthesis 2, peptide 1, 10, 100 nM
[5] = BMP4 0.2 nM, peptide 0.02, 0.2, 2 nM, Table 6
[6] = BMP7 10 nM, peptide 10, 100, 1000 nM, Table 6
[7] = BMP4 0.2 nM stimulus, peptide conc. in assay 0.02, 0.2, 2 nM, class symbols
[8] = BMP7 10 nM stimulus, peptide conc. in assay 100, 300, 1000 nM, class symbols

350 (FG[NMeF]G[Bip]GDD[Cha]A[NMeF]L[Abu]CG-NH2; not fully specified (N-terminus, bridges)) [compound 350]
aLISA BMP4 (0.2 nM) % inh (BMP4; [1]): ND (the inhibitory activity was less than 30% at the maximum concentration evaluated)
aLISA BMP7 (10 nM) % inh (BMP7; [2]): D (showed less than 30% of inhibitory activity in 10 nM-addition zone and showed 30% or more of inhibitory activity in 100 nM-addition zone)

39 ({CH2CO}-AQVYVDK[Bip]PYP[Bip]Y[Phe(4-COOH)][Phe(4-COOH)]SCG-NH2; thioether N-17; not fully specified) [compound 39]
aLISA BMP4 (BMP4; [3]): C (showed an inhibitory activity of less than 50% in 0.2 nM-addition zone and showed an inhibitory activity of 50% or more in 2 nM-addition zone were defined as B or C)
aLISA BMP7 (BMP7; [4]): ND (the inhibitory activity was less than 30% at the maximum concentration evaluated)

391 (FG[NMeF]G[Bip]GDD[Cha]AYLHCG-NH2; not fully specified (residue 11)) [compound 391]
aLISA BMP4 (0.2 nM) % inh (BMP4; BMP4 0.2 nM stimulus, peptide conc. in assay 2, 20, 200 nM): A (showed less than 30% of inhibitory activity in 2 nM-peptide-addition zone and showed 30% or more of inhibitory activity in 20 nM-addition zone)
aLISA BMP7 (10 nM) % inh (BMP7; BMP7 10 nM stimulus, peptide conc. in assay 10, 30, 90 nM): F (showed less than 30% of inhibitory activity in 10 nM-addition zone and showed 30% or more of inhibitory activity in 30 nM-addition zone)

306 (ERV[Phe(4-COOH)][Cba][KCOpipzaa]R[3Pal(6-Ph)][KCOpipzaa]Y[Hyp][Bip]Y[Phe(4-COOH)][Phe(4-COOH)]SCG-NH2; not fully specified) [compound 306]
aLIZA BMP4 (0.2 nM) % inh (BMP4; [5]): C (showed less than 30% of inhibitory activity in 0.2 nM-addition zone and showed 30% or more of inhibitory activity in 2 nM-addition zone)
aLIZA BMP7 (10 nM) % inh (BMP7; [6]): E (showed less than 30% of inhibitory activity in 100 nM-addition zone and showed 30% or more of inhibitory activity in 1,000 nM-addition zone)

251 (ERVYVDR[3Pal(6-Ph)]S[hTyr]V[Bip]Y[Phe(4-COOH)][Phe(4-COOH)]SCG-NH2) [compound 251]
aLIZA BMP4 (0.2 nM) % Inh (BMP4; SMAD1 phosphorylation by BMP4 stimulus, peptide conc. in assay 0.02, 0.2, 2 nM, class symbols): C (showed less than 30% of inhibitory activity in 0.2 nM-addition zone and showed 30% or more of inhibitory activity in 2 nM-addition zone)
aLIZA BMP7 (10 nM) % Inh (BMP7; SMAD1 phosphorylation by BMP7 stimulus, peptide conc. in assay 10, 100, 1000 nM, class symbols): ND (the inhibitory activity was less than 30% at the maximum concentration evaluated)

317 (ERV[Phe(4-COOH)][Cba][KCOpipzaa]R[3Pal(6-Ph)][KCOpipzaa]Y[Hyp][Bph3C][4Pal][Phe(4-COOH)][Phe(4-COOH)]SCG-NH2; not fully specified) [compound 317]
aLIZA BMP4 (0.2 nM) % inh (BMP4; [5]): B (showed less than 30% of inhibitory activity in 0.02 nM-addition zone and showed 30% or more of inhibitory activity in 0.2 nM-addition zone)
aLIZA BMP7 (10 nM) % inh (BMP7; [6]): ND (the inhibitory activity was less than 30% at the maximum concentration evaluated)

340 (FG[NMeF]G[Bip]GDD[Cha]Q[NMeF]LHCG-NH2; not fully specified (N-terminus, bridges)) [compound 340]
aLISA BMP4 (0.2 nM) % inh (BMP4; [1]): ND (the inhibitory activity was less than 30% at the maximum concentration evaluated)
aLISA BMP7 (10 nM) % inh (BMP7; [2]): D (showed less than 30% of inhibitory activity in 10 nM-addition zone and showed 30% or more of inhibitory activity in 100 nM-addition zone)

283 (ERV[Phe(4-COOH)]V[KCOpipzaa]R[3Pal(6-Ph)][KCOpipzaa]Y[Hyp][Bip][4Pal][Phe(4-COOH)][Phe(4-COOH)]SC[βAla]) [compound 283]
aLIZA BMP4 (0.2 nM) % inh (BMP4; [7]): B (showed less than 30% of inhibitory activity in 0.02 nM-addition zone and showed 30% or more of inhibitory activity in 0.2 nM-addition zone)
aLIZA BMP7 (10 nM) % inh (BMP7; [8]): H (showed less than 30% of inhibitory activity in 300 nM-addition zone and showed 30% or more of inhibitory activity in 1,000 nM-addition zone)

355 (FG[NMeF]G[Bip]GDD[Cha]A[NMeF]L[Hyp]CG-NH2; not fully specified (N-terminus, bridges)) [compound 355]
aLISA BMP4 (0.2 nM) % inh (BMP4; [1]): A (showed less than 30% of inhibitory activity in 2 nM-peptide-addition zone and showed 30% or more of inhibitory activity in 20 nM-addition zone)
aLISA BMP7 (10 nM) % inh (BMP7; [2]): D (showed less than 30% of inhibitory activity in 10 nM-addition zone and showed 30% or more of inhibitory activity in 100 nM-addition zone)

329 (FG[NMeF]G[F44thp]GDD[Cha]A[NMeF]LHCG-NH2; not fully specified (N-terminus, bridges)) [compound 329]
aLISA BMP4 (0.2 nM) % inh (BMP4; [1]): ND (the inhibitory activity was less than 30% at the maximum concentration evaluated)
aLISA BMP7 (10 nM) % inh (BMP7; [2]): D (showed less than 30% of inhibitory activity in 10 nM-addition zone and showed 30% or more of inhibitory activity in 100 nM-addition zone)

137 ({CH2CO}-ERVYVDR[Bip][hCit]YV[Bip]Y[Phe(4-COOH)][Phe(4-COOH)]SCG-NH2; thioether N-17; not fully specified) [compound 137]
aLISA BMP4 (BMP4; inhibition of SMAD1 phosphorylation by BMP4 stimulus, peptides of Synthesis 1, classes D-F, ND): D (showed 50% or more of inhibitory activity in 0.2 nM-addition zone)
aLISA BMP7 (BMP7; inhibition of SMAD1 phosphorylation by BMP7 stimulus, peptides of Synthesis 1, classes E, F, ND): E (showed 50% or more of inhibitory activity in a zone to which the peptide was added in an amount of 10 nM)

360 (FG[NMeF]G[Bip]GDE[Cha]A[NMeF]L[Ala(2-NH2-4-pyridyl)]CG-NH2; not fully specified (N-terminus, bridges)) [compound 360]
aLISA BMP4 (0.2 nM) % inh (BMP4; [1]): ND (the inhibitory activity was less than 30% at the maximum concentration evaluated)
aLISA BMP7 (10 nM) % inh (BMP7; [2]): D (showed less than 30% of inhibitory activity in 10 nM-addition zone and showed 30% or more of inhibitory activity in 100 nM-addition zone)

CC(C)[C@@H]1NC(=O)[C@H](Cc2ccc(C(=O)O)cc2)NC(=O)[C@H](C(C)C)NC(=O)[C@H](CCCNC(=N)N)NC(=O)[C@H](CCC(=O)O)NC(=O)CSC[C@@H](C(=O)NCC(N)=O)NC(=O)[C@H](CO)NC(=O)[C@H](Cc2ccc(C(=O)O)cc2)NC(=O)[C@H](Cc2ccc(C(=O)O)cc2)NC(=O)[C@H](Cc2ccc(O)cc2)NC(=O)[C@H](Cc2ccc(-c3ccccc3)cc2)NC(=O)[C@@H]2C[C@@H](O)CN2C(=O)[C@H](Cc2ccc(O)cc2)NC(=O)[C@H](CCCCNC(=O)N2CCN(CC(=O)O)CC2)NC(=O)[C@H](Cc2ccc(-c3ccccc3)nc2)NC(=O)[C@H](CCCNC(=N)N)NC(=O)[C@H](CCCCNC(=O)N2CCN(CC(=O)O)CC2)NC1=O [compound 277] ({CH2CO}-ERV[Phe(4-COOH)]VK([CO-Piperazinyl(4-CH2COOH)])R[3Pal(6-Ph)]K([CO-Piperazinyl(4-CH2COOH)])Y[Hyp][Bip]Y[Phe(4-COOH)][Phe(4-COOH)]SCG-NH2; thioether N-17)
aLIZA BMP4 (0.2 nM) % inh (BMP4; [7]): B (showed less than 30% of inhibitory activity in 0.02 nM-addition zone and showed 30% or more of inhibitory activity in 0.2 nM-addition zone)
aLIZA BMP7 (10 nM) % inh (BMP7; [8]): H (showed less than 30% of inhibitory activity in 300 nM-addition zone and showed 30% or more of inhibitory activity in 1,000 nM-addition zone)

32 (ARVYVDR[3Pal(6-Ph)]PYP[3Pal(6-Ph)]Y[Phe(4-COOH)][Phe(4-COOH)]SCG-NH2; not fully specified (N-terminus, bridges)) [compound 32]
aLISA BMP4 (BMP4; [3]): A (showed an inhibitory activity of 50% or more in a zone to which the peptide was added to in an amount of 0.2 nM)
aLISA BMP7 (BMP7; [4]): ND (the inhibitory activity was less than 30% at the maximum concentration evaluated)

370 (FG[NMeF]G[3Pal(6-Ph)]GDE[Cha]Q[NMeF]L[Phe(4-COOH)]CG-NH2; not fully specified (N-terminus, bridges)) [compound 370]
aLISA BMP4 (0.2 nM) % inh (BMP4; [1]): ND (the inhibitory activity was less than 30% at the maximum concentration evaluated)
aLISA BMP7 (10 nM) % inh (BMP7; [2]): D (showed less than 30% of inhibitory activity in 10 nM-addition zone and showed 30% or more of inhibitory activity in 100 nM-addition zone)

284 (ERV[Phe(4-COOH)]V[KCOpipzaa]R[3Pal(6-Ph)][KCOpipzaa]YV[Bip][4Pal][Phe(4-COOH)][Phe(4-COOH)]SC[βAla]) [compound 284]
aLIZA BMP4 (0.2 nM) % inh (BMP4; [7]): C (showed less than 30% of inhibitory activity in 0.2 nM-addition zone and showed 30% or more of inhibitory activity in 2 nM-addition zone)
aLIZA BMP7 (10 nM) % inh (BMP7; [8]): ND (the inhibitory activity was less than 30% at the maximum concentration evaluated)
